Tests used:
[1] = Activity of ATG-2889 variants (positions 344/396) with D/L-luciferin; format: biochemical; settings: substrate D/L-luciferin
Excerpt: (§1) Additionally, several other amino acid substitutions, including those not considered to be conservative or semi-conservative, were made to ATG-2889, as shown below in Table 2.

[2] = Activity of ATG-2889 variants (positions 344/396) with CS0333; format: biochemical; settings: substrate CS0333
Excerpt: as §1

[3] = E. coli lysate activity of position 244/339 variants with CS0333 (FIG. 7); format: biochemical; settings: E. coli lysates; Detection Reagent; 0.5 mM substrate; 1 mM ATP; 3 mins
Description: FIG. 7 includes a representative graph assessing the activities of luciferase enzyme variants with amino acid substitutions at positions 244 and 339 of SEQ ID NO: 1 in the presence of 5,5-disubstituted luciferin analog substrate. Assays were prepared by combining overnight E. coli culture expressing enzymes with Detection Reagent+ATP+substrate (luciferin analog compounds CS0280, CS0333, CS0510, and CS0326), and luminescence was read at 3 mins. Reagent compositions included 50 μl lysate of the thermostable luciferase variant of Ppe variant of SEQ ID NO: 1, 0.5 mM substrate, and 1 mM ATP.

[4] = Kinetic analysis of ATG-2889 with CS0333 versus luciferin (FIG. 16B); format: biochemical
Description: FIG. 16B provides similar results. […] The composition was incubated for 3 mins prior to quantification.

[5] = Effect of V300G, L305F, S306P on activity with CS0333 (FIG. 13); format: biochemical; settings: 1 mM ATP; 100 nM to 1 mM substrate; Bright-Glo buffer
Description: FIG. 13 includes a representative graph of the effects of amino acid substitutions V300G, L305F, and S306P on enzyme activity with the CS0333 analog. Reagent compositions included […]+1 mM ATP+100 nM to 1 mM substrate in Bright-Glo™ buffer.

[6] = Activity of ATG-2671 with luciferin analogs; format: biochemical; settings: data not shown
Description: FIG. 15 includes representative graphs of kinetic activity of the luciferase enzyme variant ATG-2671 with D/L-luciferin. […] The composition was incubated for 3 mins and read on GloMax® Multi+platform.

[7] = Vmax and Km of Ppe variant and ATG-3707 with D/L-luciferin; format: biochemical
[8] = Differential scanning fluorimetry (DSF) analysis; format: physicochemical; settings: Table 9A
Procedure, shortened: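 Enzymes mixed with Sypro Orange at 5× final, heated 30–95° C at 1° C per minute with fluorescence read every 60 s. Storage buffer 50 mM HEPES pH 7.5, 100 mM NaCl, 2 mM EDTA, or for luciferase variants 20 mM HEPES pH 7.5, 200 mM NaCl, 1 mM EDTA; per-minute fluorescence change plotted against temperature.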

[9] = Kinetic analysis of Ppe variant, ATG-3707, ATG-4117 with D/L-luciferin; format: biochemical
Description: Kinetic tests of these luciferase enzyme variants were also conducted. […] Reagent compositions included 0.005 mg/ml luciferase enzyme variant+1 mM ATP, and 0.1 fM to 1 mM substrate in Bright-Glo™ (BG) or Detection Reagent (DR) buffers. The composition was incubated for 3 mins and read on GloMax® Multi+platform.
Table 8 below includes representative results of kinetic analysis of the thermostable luciferase variants of Ppe (SEQ ID NO: 1), ATG-3707, and ATG-4117. The Ppe variant (SEQ ID NO: 1) was tested with D/L-luciferin, and ATG-3707, and ATG-4117 were tested with CS0280 and CS0333.

[10] = Kinetic analysis of thermostable variants with D/L-luciferin (Table 10); format: biochemical
Description: Experiments were also conducted to evaluate the activities (i.e. Vmax and Km) of the various thermostable luciferase variants of Ppe (SEQ ID NO: 1) described above.
(§2) Tables 10 and 11 include representative results of kinetic analysis of the thermostable variants with D/L luciferin, CS0333, and CS0280. […] MK0135 and MK0137 have amino acid substitutions that improve thermostability relative to MK0133 and MK0134, respectively, while retaining activity on the luciferin analogs CS0333 and CS0280.

[11] = Luminescence at 1 mM D/L-luciferin (Table 11); format: biochemical; settings: 1 mM substrate, 1 mM ATP
Excerpt: as §2

[12] = Luminescence at 1 mM CS0333 (Table 11); format: biochemical; settings: 1 mM substrate, 1 mM ATP
Excerpt: as §2

[13] = Luminescence at 1 mM CS0280 (Table 11); format: biochemical; settings: 1 mM substrate, 1 mM ATP
Excerpt: as §2

[14] = Kinetic analysis of thermostable variants with D/L-luciferin (Tables 13, 14); format: biochemical; settings: 2 mM ATP
[15] = Km for ATP with saturating substrate (FIG. 18); format: biochemical; settings: with CS0333, relative to Ppe variant with luciferin
Description: Reagent composition included 1 mM substrate, 100 fM-100 uM ATP (10-fold dilutions), and 0.1 mg/ml enzyme. […] Thus, the combination of the ATG-3674 luciferase enzyme variant with the thermostable CS0333 luciferin analog substrate will be effective in ATP detection/quantification assays.

B1: ATG2889: SEQ ID NO: 12; H244W+T344A+I396K (protein)
chain: MADKNILYGPEPFYPLEDGTAGEQMFDALSRYAAIPGCIALTNAHTKENVLYEEFLKLSCRLAESFKKYGLKQNDTIAVCSENSLQFFLPVIASLYLGIIVAPVNDKYIERELIHSLGIVKPRIVFCSKNTFQKVLNVKSKLKSIETIIILDLNEDLGGYQCLNNFISQNSDSNLDVKKFKPYSFNRDDQVASIMFSSGTTGLPKGVMLTHKNIVARFSIAKDPTFGNAINPTSAILTVIPFHWGFGMMTTLGYFTCGFRVVLMHTFEEKLFLQSLQDYKVESTLLVPTLMAFLAKSALVEKYDLSHLKEIASGGAPLSKEIGEMVKKRFKLNFVRQGYGLTEATSAVLITPKGDAKPGSTGKIVPLHAVKVVDPTTGKILGPNEPGELYFKGPMKMKGYYNNEEATKAIIDNDGWLRSGDIAYYDNDGHFYIVDRLKSLIKYKGYQVAPAEIEGILLQHPYIVDAGVTGIPDEAAGELPAAGVVVQTGKYLNEQIVQDYVASQVSTAKWLRGGVKFLDEIPKGSTGKIDRKVLRQMLEKHTNGHHHHHHHH
[1]
  activity with D/L-luciferin: 5507240
[2]
  activity with CS0333: 679219
[3]
  activity above background with CS0333: approximately 285 fold
[4]; Bright-Glo Buffer
  Vmax with CS0333 lower than the Vmax for luciferin: 23.1 fold
[4]; Detection Reagent buffer
  Vmax with CS0333 lower than the Vmax for luciferin: 42.9 fold
[5]
  activity with CS0333 relative to Ppe variant (SEQ ID NO: 1): improved activity

B2: ATG-2671: luciferase enzyme variant ATG-2671 (G245A+L285I+G315A) (protein)
chain: MADKNILYGPEPFYPLEDGTAGEQMFDALSRYAAIPGCIALTNAHTKENVLYEEFLKLSCRLAESFKKYGLKQNDTIAVCSENSLQFFLPVIASLYLGIIVAPVNDKYIERELIHSLGIVKPRIVFCSKNTFQKVLNVKSKLKSIETIIILDLNEDLGGYQCLNNFISQNSDSNLDVKKFKPYSFNRDDQVASIMFSSGTTGLPKGVMLTHKNIVARFSIAKDPTFGNAINPTSAILTVIPFHHAFGMMTTLGYFTCGFRVVLMHTFEEKLFLQSLQDYKVESTILVPTLMAFLAKSALCEKYDLSHLKEIASGAAPLSKEIGEMVKKRFKLNFVRQGYGLTETTSAVLITPKGDAKPGSTGKIVPLHAVKVVDPTTGKILGPNEPGELYFKGPMIMKGYYNNEEATKAIIDNDGWLRSGDIAYYDNDGHFYIVDRLKSLIKYKGYQVAPAEIEGILLQHPYIVDAGVTGIPDEAAGELPAAGVVVQTGKYLNEQIVQDYVASQVSTAKWLRGGVKFLDEIPKGSTGKIDRKVLRQMLEKHTNGHHHHHHHH
[6]
  activity with luciferin analogs: not active

B3: Ppe variant: thermostable luciferase variant of Photuris pennsylvanica (Ppe) of SEQ ID NO: 1 (protein)
chain: MADKNILYGPEPFYPLEDGTAGEQMFDALSRYAAIPGCIALTNAHTKENVLYEEFLKLSCRLAESFKKYGLKQNDTIAVCSENSLQFFLPVIASLYLGIIVAPVNDKYIERELIHSLGIVKPRIVFCSKNTFQKVLNVKSKLKSIETIIILDLNEDLGGYQCLNNFISQNSDSNLDVKKFKPYSFNRDDQVASIMFSSGTTGLPKGVMLTHKNIVARFSIAKDPTFGNAINPTSAILTVIPFHHGFGMMTTLGYFTCGFRVVLMHTFEEKLFLQSLQDYKVESTLLVPTLMAFLAKSALCEKYDLSHLKEIASGGAPLSKEIGEMVKKRFKLNFVRQGYGLTETTSAVLITPKGDAKPGSTGKIVPLHAVKVVDPTTGKILGPNEPGELYFKGPMIMKGYYNNEEATKAIIDNDGWLRSGDIAYYDNDGHFYIVDRLKSLIKYKGYQVAPAEIEGILLQHPYIVDAGVTGIPDEAAGELPAAGVVVQTGKYLNEQIVQDYVASQVSTAKWLRGGVKFLDEIPKGSTGKIDRKVLRQMLEKHTNGHHHHHHHH
[1]
  activity with D/L-luciferin: 7118320
[2]
  activity with CS0333: 178
[7]; BrightGlo Buffer
  Km: 0.315 µM
  Vmax (RLU): 23,319,814 RLU
[7]; CellTiterGlo buffer
  Km: 1060 µM
  Vmax (RLU): 5,771,822 RLU
[7]; Detection Reagent Buffer
  Km: 10.8 µM
  Vmax (RLU): 10,017,520 RLU
[8]
  DSF Tm (° C.): 79 °C
[9]; BrightGlo
  Km: 0.466 µM
  Vmax (RLU): 23,226,184 RLU
[9]; Detection Reagent
  Km: 11 µM
  Vmax (RLU): 12,592,733 RLU
[10]; BrightGlo Buffer
  Km: 0.667 µM
  Vmax (RLU): 18,332,536 RLU
[10]; Detection Reagent Buffer
  Km: 9.38 µM
  Vmax (RLU): 9,350,431 RLU
[11]; BrightGlo Buffer
  Vmax (RLU) D/L-luciferin BrightGlo Buffer: 30,177,800 RLU
[11]; Detection Reagent Buffer
  Vmax (RLU) D/L-luciferin Detection Reagent Buffer: 17,201,600 RLU
[12]; BrightGlo Buffer
  Vmax (RLU) CS0333 BrightGlo Buffer: 862 RLU
[12]; Detection Reagent Buffer
  Vmax (RLU) CS0333 Detection Reagent Buffer: 724 RLU
[13]; BrightGlo Buffer
  Vmax (RLU) CS0280 BrightGlo Buffer: 3,689 RLU
[13]; Detection Reagent Buffer
  Vmax (RLU) CS0280 Detection Reagent Buffer: 394 RLU
[14]; BrightGlo Buffer
  Km: 1.03 µM
  Vmax (RLU): 14,958,892 RLU
[14]; Detection Reagent Buffer
  Km: 28.3 µM
  Vmax (RLU): 5,686,042 RLU
[3]
  activity above background with CS0333: below background (inhibited)

B4: ATG-3674: SEQ ID NO: 25; H244W+T344A+I396K+S193A+N228D+L305F+S306P (protein)
chain: MADKNILYGPEPFYPLEDGTAGEQMFDALSRYAAIPGCIALTNAHTKENVLYEEFLKLSCRLAESFKKYGLKQNDTIAVCSENSLQFFLPVIASLYLGIIVAPVNDKYIERELIHSLGIVKPRIVFCSKNTFQKVLNVKSKLKSIETIIILDLNEDLGGYQCLNNFISQNSDSNLDVKKFKPYSFNRDDQVAAIMFSSGTTGLPKGVMLTHKNIVARFSIAKDPTFGDAINPTSAILTVIPFHWGFGMMTTLGYFTCGFRVVLMHTFEEKLFLQSLQDYKVESTLLVPTLMAFLAKSALVEKYDFPHLKEIASGGAPLSKEIGEMVKKRFKLNFVRQGYGLTEATSAVLITPKGDAKPGSTGKIVPLHAVKVVDPTTGKILGPNEPGELYFKGPMKMKGYYNNEEATKAIIDNDGWLRSGDIAYYDNDGHFYIVDRLKSLIKYKGYQVAPAEIEGILLQHPYIVDAGVTGIPDEAAGELPAAGVVVQTGKYLNEQIVQDYVASQVSTAKWLRGGVKFLDEIPKGSTGKIDRKVLRQMLEKHTNGHHHHHHHH
[15]
  Km values for ATP: equivalent to improved Km values for ATP

Reference: patent publication US12545899B2, “Luciferase enzymes for use with thermostable luciferins in bioluminescent assays” (Promega Corporation, priority 2018, dated 2026)
